Data published in paper PMC4207562, “Study of the Structure-Function-Stability Relationships in Yeast D-amino Acid Oxidase: Hydrophobization of Alpha-Helices” (Acta Naturae, 2014).

Experiments:
Settings in all cases: 50 mM potassium phosphate pH 8.0, 30 °C, air-saturated
[1] = substrate: CSCC[C@@H](N)C(=O)O; assay: peroxidase/ABTS coupled assay, A414; type: biochemical, Trigonopsis variabilis
Text: (§1) peroxidase/ABTS coupled assay, A414 on TvDAAO

[2] = substrate: NCCCC[C@@H](N)C(=O)O; assay: peroxidase/ABTS coupled assay, A414; type: biochemical, Trigonopsis variabilis
Text: as §1

[3] = substrate: N[C@H](Cc1ccc(O)cc1)C(=O)O; assay: peroxidase/ABTS coupled assay, A414; type: biochemical, Trigonopsis variabilis
Text: as §1

[4] = substrate: N[C@H](Cc1c[nH]c2ccccc12)C(=O)O; assay: peroxidase/ABTS coupled assay, A414; type: biochemical, Trigonopsis variabilis
Text: as §1

[5] = substrate: NC(=O)C[C@@H](N)C(=O)O; assay: peroxidase/ABTS coupled assay, A414; type: biochemical, Trigonopsis variabilis
Text: as §1

purified protein [6] = substrate: CC(C)[C@@H](N)C(=O)O; assay: purified protein
purified protein [7] = substrate: C[C@H](O)[C@@H](N)C(=O)O; assay: purified protein
purified protein [8] = substrate: CC(C)C[C@@H](N)C(=O)O; assay: purified protein
purified protein [9] = substrate: N[C@H](CO)C(=O)O; assay: purified protein
purified protein [10] = substrate: N[C@H](Cc1ccccc1)C(=O)O; assay: purified protein
purified protein [11] = substrate: C[C@@H](N)C(=O)O; assay: purified protein

B1: TvDAAO (Trigonopsis variabilis) (protein)
chain: MAKIVVIGAGVAGLTTALQLLRKGHEVTIVSEFTPGDLSIGYTSPWAGANWLTFYDGGKLADYDAVSYPILRELARSSPEAGIRLISQRSHVLKRDLPKLEVAMSAICQRNPWFKNTVDSFEIIEDRSRIVHDDVAYLVEFRSVCIHTGVYLNWLMSQCLSLGATVVKRRVNHIKDANLLHSSGSRPDVIVNCSGLFARFLGGVEDKKMYPIRGQVVLVRNSLPFMASFSSTPEKENEDEALYIMTRFDGTSIIGGCFQPNNWSSEPDPSLTHRILSRALDRFPELTKDGPLDIVRECVGHRPGREGGPRVELEKIPGVGFVVHNYGAAGAGYQSSYGMADEAVSYVERALTRPNL
notes: recombinant tvdaao gene in pET-33b(+) based plasmid, E. coli BL21(DE3) CodonPlus/pLysS; MonoQ purified; FAD homodimer; no tag stated
- Km [1]: 460 ± 30 µM
- kcat [1]: 80.5 ± 0.8 s⁻¹
- kcat/Km [1]: 175000 M⁻¹ s⁻¹
- Km [2]: 29300 ± 3400 µM
- kcat [2]: 3.54 ± 0.21 s⁻¹
- kcat/Km [2]: 120 M⁻¹ s⁻¹
- Km [3]: 450 ± 60 µM
- kcat [3]: 22.5 ± 1.9 s⁻¹
- kcat/Km [3]: 50000 M⁻¹ s⁻¹
- Km [4]: 490 ± 40 µM
- kcat [4]: 42.4 ± 1.4 s⁻¹
- kcat/Km [4]: 86500 M⁻¹ s⁻¹
- Km [5]: 22600 ± 1500 µM
- kcat [5]: 62.4 ± 2 s⁻¹
- kcat/Km [5]: 2800 M⁻¹ s⁻¹
- Km (purified protein [6]): 14400 ± 1200 µM
- kcat (purified protein [6]): 85.3 s⁻¹
- kcat/Km (purified protein [6]): 5900 M⁻¹ s⁻¹
- Km (purified protein [7]): 11100 ± 800 µM
- kcat (purified protein [7]): 1.75 s⁻¹
- kcat/Km (purified protein [7]): 160 M⁻¹ s⁻¹
- Km (purified protein [8]): 780 ± 20 µM
- kcat (purified protein [8]): 29.1 s⁻¹
- kcat/Km (purified protein [8]): 37300 M⁻¹ s⁻¹
- Km (purified protein [9]): 36600 ± 3300 µM
- kcat (purified protein [9]): 20.5 s⁻¹
- kcat/Km (purified protein [9]): 560 M⁻¹ s⁻¹
- Km (purified protein [10]): 370 ± 40 µM
- kcat (purified protein [10]): 27.2 s⁻¹
- kcat/Km (purified protein [10]): 73900 M⁻¹ s⁻¹
- Km (purified protein [11]): 16700 ± 700 µM
- kcat (purified protein [11]): 109 s⁻¹
- kcat/Km (purified protein [11]): 6500 M⁻¹ s⁻¹

B2: TvDAAO (Trigonopsis variabilis; S277A) (protein)
chain: MAKIVVIGAGVAGLTTALQLLRKGHEVTIVSEFTPGDLSIGYTSPWAGANWLTFYDGGKLADYDAVSYPILRELARSSPEAGIRLISQRSHVLKRDLPKLEVAMSAICQRNPWFKNTVDSFEIIEDRSRIVHDDVAYLVEFRSVCIHTGVYLNWLMSQCLSLGATVVKRRVNHIKDANLLHSSGSRPDVIVNCSGLFARFLGGVEDKKMYPIRGQVVLVRNSLPFMASFSSTPEKENEDEALYIMTRFDGTSIIGGCFQPNNWSSEPDPSLTHRILARALDRFPELTKDGPLDIVRECVGHRPGREGGPRVELEKIPGVGFVVHNYGAAGAGYQSSYGMADEAVSYVERALTRPNL
- Km (purified protein [8]): 150 ± 20 µM
- kcat (purified protein [8]): 12 s⁻¹
- kcat/Km (purified protein [8]): 80000 M⁻¹ s⁻¹

B3: TvDAAO (Trigonopsis variabilis; S77A) (protein)
chain: MAKIVVIGAGVAGLTTALQLLRKGHEVTIVSEFTPGDLSIGYTSPWAGANWLTFYDGGKLADYDAVSYPILRELARASPEAGIRLISQRSHVLKRDLPKLEVAMSAICQRNPWFKNTVDSFEIIEDRSRIVHDDVAYLVEFRSVCIHTGVYLNWLMSQCLSLGATVVKRRVNHIKDANLLHSSGSRPDVIVNCSGLFARFLGGVEDKKMYPIRGQVVLVRNSLPFMASFSSTPEKENEDEALYIMTRFDGTSIIGGCFQPNNWSSEPDPSLTHRILSRALDRFPELTKDGPLDIVRECVGHRPGREGGPRVELEKIPGVGFVVHNYGAAGAGYQSSYGMADEAVSYVERALTRPNL
notes: as for B1
- Km [3]: 6500 ± 700 µM
- kcat [3]: 12.4 ± 0.8 s⁻¹
- kcat/Km [3]: 1900 M⁻¹ s⁻¹
- Km [5]: 4700 ± 700 µM
- kcat [5]: 17.2 ± 1 s⁻¹
- kcat/Km [5]: 3700 M⁻¹ s⁻¹

B4: TvDAAO (Trigonopsis variabilis; S336A) (protein)
chain: MAKIVVIGAGVAGLTTALQLLRKGHEVTIVSEFTPGDLSIGYTSPWAGANWLTFYDGGKLADYDAVSYPILRELARSSPEAGIRLISQRSHVLKRDLPKLEVAMSAICQRNPWFKNTVDSFEIIEDRSRIVHDDVAYLVEFRSVCIHTGVYLNWLMSQCLSLGATVVKRRVNHIKDANLLHSSGSRPDVIVNCSGLFARFLGGVEDKKMYPIRGQVVLVRNSLPFMASFSSTPEKENEDEALYIMTRFDGTSIIGGCFQPNNWSSEPDPSLTHRILSRALDRFPELTKDGPLDIVRECVGHRPGREGGPRVELEKIPGVGFVVHNYGAAGAGYQSAYGMADEAVSYVERALTRPNL
- Km (purified protein [8]): 70 ± 10 µM
- kcat (purified protein [8]): 5 s⁻¹
- kcat/Km (purified protein [8]): 76400 M⁻¹ s⁻¹

B5: TvDAAO (Trigonopsis variabilis; S105A) (protein)
chain: MAKIVVIGAGVAGLTTALQLLRKGHEVTIVSEFTPGDLSIGYTSPWAGANWLTFYDGGKLADYDAVSYPILRELARSSPEAGIRLISQRSHVLKRDLPKLEVAMAAICQRNPWFKNTVDSFEIIEDRSRIVHDDVAYLVEFRSVCIHTGVYLNWLMSQCLSLGATVVKRRVNHIKDANLLHSSGSRPDVIVNCSGLFARFLGGVEDKKMYPIRGQVVLVRNSLPFMASFSSTPEKENEDEALYIMTRFDGTSIIGGCFQPNNWSSEPDPSLTHRILSRALDRFPELTKDGPLDIVRECVGHRPGREGGPRVELEKIPGVGFVVHNYGAAGAGYQSSYGMADEAVSYVERALTRPNL
- Km (purified protein [8]): 280 ± 20 µM
- kcat (purified protein [8]): 30.4 s⁻¹
- kcat/Km (purified protein [8]): 110000 M⁻¹ s⁻¹
- Km (purified protein [10]): 260 ± 20 µM
- kcat (purified protein [10]): 32.3 s⁻¹
- kcat/Km (purified protein [10]): 124000 M⁻¹ s⁻¹

B6: TvDAAO (Trigonopsis variabilis; S67A) (protein)
chain: MAKIVVIGAGVAGLTTALQLLRKGHEVTIVSEFTPGDLSIGYTSPWAGANWLTFYDGGKLADYDAVAYPILRELARSSPEAGIRLISQRSHVLKRDLPKLEVAMSAICQRNPWFKNTVDSFEIIEDRSRIVHDDVAYLVEFRSVCIHTGVYLNWLMSQCLSLGATVVKRRVNHIKDANLLHSSGSRPDVIVNCSGLFARFLGGVEDKKMYPIRGQVVLVRNSLPFMASFSSTPEKENEDEALYIMTRFDGTSIIGGCFQPNNWSSEPDPSLTHRILSRALDRFPELTKDGPLDIVRECVGHRPGREGGPRVELEKIPGVGFVVHNYGAAGAGYQSSYGMADEAVSYVERALTRPNL
notes: as for B1
- Km [1]: 1350 ± 40 µM
- kcat [1]: 104 ± 3 s⁻¹
- kcat/Km [1]: 77400 M⁻¹ s⁻¹
- Km (purified protein [8]): 340 ± 20 µM
- kcat (purified protein [8]): 31.4 s⁻¹
- kcat/Km (purified protein [8]): 93100 M⁻¹ s⁻¹

B7: TvDAAO (Trigonopsis variabilis; S335A) (protein)
chain: MAKIVVIGAGVAGLTTALQLLRKGHEVTIVSEFTPGDLSIGYTSPWAGANWLTFYDGGKLADYDAVSYPILRELARSSPEAGIRLISQRSHVLKRDLPKLEVAMSAICQRNPWFKNTVDSFEIIEDRSRIVHDDVAYLVEFRSVCIHTGVYLNWLMSQCLSLGATVVKRRVNHIKDANLLHSSGSRPDVIVNCSGLFARFLGGVEDKKMYPIRGQVVLVRNSLPFMASFSSTPEKENEDEALYIMTRFDGTSIIGGCFQPNNWSSEPDPSLTHRILSRALDRFPELTKDGPLDIVRECVGHRPGREGGPRVELEKIPGVGFVVHNYGAAGAGYQASYGMADEAVSYVERALTRPNL
notes: as for B1
- Km [1]: 4600 ± 200 µM
- kcat [1]: 45.9 ± 1.1 s⁻¹
- kcat/Km [1]: 9900 M⁻¹ s⁻¹
